Like-named read-outs stand apart in the source and are kept apart here.
Columns and labels:
[1] = target: T1, HhpR (Pyrococcus yayanosii A1, UniProt F8AFU3 1-281); experiment: fluorescence polarization
T1 sequence: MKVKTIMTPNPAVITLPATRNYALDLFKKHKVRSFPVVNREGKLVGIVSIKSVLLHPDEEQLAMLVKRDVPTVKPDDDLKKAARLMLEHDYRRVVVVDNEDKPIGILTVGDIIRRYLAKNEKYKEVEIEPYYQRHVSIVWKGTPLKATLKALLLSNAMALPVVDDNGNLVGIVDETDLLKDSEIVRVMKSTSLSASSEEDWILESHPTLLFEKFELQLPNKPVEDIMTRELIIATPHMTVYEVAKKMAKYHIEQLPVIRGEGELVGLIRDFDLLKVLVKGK

[2] = target: T1, HhpR; experiment: fluorescence polarization; remark: listed apart in the source

B1: 44-bp Phhp (dsDNA)
DNA 1: CATATAAAAATTGTTGGGCAAATCTGCCCAGAAAAGCTTAAAAG
DNA 2: CTTTTAAGCTTTTCTGGGCAGATTTGCCCAACAATTTTTATATG
Question: B1 was tested. Which Kd [1] did it give?
Answer: 1900 ± 400 nM

Question: What about the Kd [2] of the same binder?
Answer: 650 ± 370 nM

From publication PMC11705074
